Results as given in US20070243184A1, “PROPHYLAXIS AND TREATMENT OF ENTEROCOLITIS ASSOCIATED WITH ANTI-CTLA-4 ANTIBODY THERAPY” (priority 2005, published 2007).

Legend:
[1] = including hypothalamic-pituitary suppression; cited from earlier work
[2] = test system: patients; test: Clinical (antitumor) response in patients treated with MDX-010; type: in vivo, human
From the text: These adverse events, likely reflect a loss of tolerance to some self antigens, or a hyper-response to bacterial antigens present in the gut or skin, and are therefore mechanism-related and may be directly linked to the clinical antitumor activity of MDX-010.
Of note, most responses observed to date have occurred by Week 12, even in patients with initial progression. As such, all patients who receive at least one dose of MDX-010 (BMS-734016) will, whenever possible, first return for the tumor re-staging assessment at Week 12 (and not before). After patients have been treated in the Induction Phase, they will either enter the Maintenance Phase or the Follow-up Phase, depending upon whether or not they meet eligibility criteria to enter the Maintenance Phase.

[3] = test system: patients; test: Adverse events in patients treated with MDX-010 in clinical protocols; type: in vivo
From the text: As noted above, these adverse events are an expected consequence of inhibiting CTLA-4 function. Immune-mediated events are adverse events associated with drug exposure and consistent with an immune-based mechanism of action. In terms of organ system involvement, these events have primarily involved the GI tract (diarrhea and colitis) or the skin (rash and pruritis). Diarrhea due to treatment with MDX-010 ranges from mild to very severe and may become life-threatening. Most cases of diarrhea and colitis have resolved with symptomatic treatment or corticosteroid intervention without known sequelae. Upper GI tract involvement including ileitis, duodenitis, and esophagitis has been observed.
To date, 6 patients in total have experienced gastrointestinal perforation or bleeding requiring colectomy following treatment with MDX-010. Two of these patients had melanoma (representing 0.6% of all patients with melanoma enrolled in MDX-010 related protocols), while four patients had renal cell carcinoma (representing 7% of all patients with renal cell carcinoma enrolled in MDX-010 related protocols). One of the patients with melanoma also received concomitant dacarbazine. After developing diarrhea, they initially appeared to improve on intravenous steroids, but their symptoms worsened after they were tapered off the steroids, and stool cultures were positive for Clostridium difficile, requiring aggressive medical treatment. The patient also developed laboratory evidence of disseminated intravascular coagulopathy (DIC), and required plasma and platelet transfusions. […] The patient's post-operative course was complicated by depression and malnutrition without evidence of systemic vasculitis. The patient developed pneumonia and subsequently died.
In the renal study (MDX010-011), one patient had GI bleeding, which was treated with a colectomy. The bleeding developed after a single dose of MDX-010. The other 3 events in the MDX010-011 study occurred after the patients received 4 to 6 doses of MDX-010. One patient with a bowel perforation was successfully treated with a colectomy and an ostomy. Subsequently, the bowel was re-functionalized. The patient was taken off steroids and has maintained a partial response to their malignancy. […] The diagnosis of colitis was only made on autopsy. The third patient with a bowel perforation continued to have diarrhea and was intermittently treated with steroids. Upon the diagnosis of a non-catastrophic perforation, the patient declined surgical intervention based on the overall progression of disease. The patient opted for hospice care and ultimately died. The fourth patient developed symptoms of colitis after a single dose of MDX-010, had only intermittent steroid treatment, and ultimately underwent a colectomy for uncontrolled bleeding. Of the 3 patients who received steroid therapy, the initiation of steroid therapy was delayed due to poor patient reporting of symptoms to the investigator, and the therapy was compromised by patient non-compliance with the recommended treatment.
The overall incidence of gastrointestinal perforations and/or colectomies is less than 2% of patients.
Skin toxicity in patients receiving MDX-010 has manifested as rash and pruritis, and, when biopsied, pleomorphic infiltrates have been noted in the skin. Some patients have developed vitiligo associated with MDX-010 administration. In our studies, there have been 7 cases of hypopituitarism reported to date, presumably due to immune-mediated hypophysitis. […] The effect of high-dose corticosteroid therapy on reversing pituitary abnormalities is unknown. Ocular inflammation, specifically Grade 2 or Grade 3 episcleritis or uveitis, has been reported in 6 patients; it has occurred in conjunction with GI symptoms in 4 of these patients. In addition, primary adrenal insufficiency has been noted in 3 patients. […]

Row | Compound | adverse effects versus systemically-acting corticosteroids [1] | time by which most responses observed to date have occurred ([2]; even in patients with initial progression) [Week] | patients developing an autoimmune-like adverse event who also experienced a clinical response ([2]; in one of the studies) [%] | overall incidence of gastrointestinal perforations and/or colectomies ([3]; all patients) | patients in total who experienced gastrointestinal perforation or bleeding requiring colectomy ([3]; following treatment with MDX-010, all protocols, to date) [patients] | ocular inflammation (Grade 2 or Grade 3 episcleritis or uveitis) reported ([3]; human, in vivo) [patients] | primary adrenal insufficiency noted ([3]; human, in vivo) [patients] | ocular inflammation occurring in conjunction with GI symptoms ([3]; of the 6 patients with ocular inflammation) [patients] | gastrointestinal perforations or colectomies in patients with breast or prostate cancer ([3]; patients with breast or prostate cancer) | gastrointestinal perforation or bleeding requiring colectomy, share of all patients with melanoma enrolled ([3]; patients with melanoma in MDX-010 related protocols) [%] | gastrointestinal perforation or bleeding requiring colectomy, share of all patients with renal cell carcinoma enrolled ([3]; patients with renal cell carcinoma in MDX-010 related protocols) [%] | cases of hypopituitarism reported ([3]; presumably due to immune-mediated hypophysitis, to date) [cases]
1 | CCCC1O[C@@H]2C[C@H]3[C@@H]4CCC5=CC(=O)C=C[C@]5(C)[C@H]4[C@@H](O)C[C@]3(C)[C@]2(C(=O)CO)O1 (stereo partly drawn) [Budesonide, budesonide] | fewer adverse effects | – | – | – | – | – | – | – | – | – | – | –
2 | MDX-010: human monoclonal anti-CTLA-4 antibody (Medarex, Inc.), corresponds to monoclonal antibody 10D1; also referred to as ipilimumab | – | ≤ 12 | ~45 | less than 2 % of patients | 6 | 6 | 3 | 4 | no reported gastrointestinal perforations or colectomies | 0.6 | 7 | 7
